Source: patent US20050032689A1, “Methods for treatment or diagnosis of disease or disorders associated with an APB domain” (New York University, priority 1994, published 2005)
Entries after “also recorded” stand apart in the source; their conditions may differ.

Molecular target: T1, TrkA (Rattus norvegicus, UniProt P35739)
T1 construct: lysates from 2×10^7 PC12 cells stimulated with 50 ng/ml nerve growth factor; endogenous in cells; host or cells: PC12
Experiment: Binding of GST fusion proteins to TrkA from nerve growth factor stimulated PC12 cell lysates
Settings: 10 μg GST fusion protein, PC12 lysates stimulated with nerve growth factor
Method: FIGS. 4A, 4B, 4C and 4D. Binding of Shc fragments to growth factor receptors. A, schematic diagram illustrating the Shc fragments used in binding studies. Full length murine p52^shc is indicated in (i) while (ii)-(vi) were generated as GST fusion proteins for use in receptor binding studies. B, association of various GST fusion proteins with activated EGF receptor (EGFR). Binding was performed as in FIG. 2A with the exception that all lysates were stimulated with EGF. All studies used 3 μg of fusion proteins except for the Shc SH2 where 10 μg was used. Immunoblotting was performed with anti-phosphotyrosine. C, binding of Shc fusion proteins to NIH 3T3 cells expressing a HER1/2 chimera. This chimera consists of the EGF receptor extracellular binding domain and the intracellular region of HER2/neu. After stimulation of these cells with EGF (200 ng/ml) lysates were prepared and binding as well as blotting studies were performed as in B using anti-phosphotyrosine antibody. D, binding of Shc 1-209 to TrkA. Beads containing 10 μg of GST fusion proteins Shc 1-209, phospholipase C-γ (PLC-γ) SH2 (contains both N and C SH2 domains), or GST alone were added to lysates from 2×10^7 PC12 cells stimulated with 50 ng/ml nerve growth factor (lanes 1, 2, and 4). […] Protein concentration was determined by SDS-PAGE (polyacrylamide gel electrophoresis) using bovine serum albumin as a standard. […]

T1 sequence (P35739 33-799): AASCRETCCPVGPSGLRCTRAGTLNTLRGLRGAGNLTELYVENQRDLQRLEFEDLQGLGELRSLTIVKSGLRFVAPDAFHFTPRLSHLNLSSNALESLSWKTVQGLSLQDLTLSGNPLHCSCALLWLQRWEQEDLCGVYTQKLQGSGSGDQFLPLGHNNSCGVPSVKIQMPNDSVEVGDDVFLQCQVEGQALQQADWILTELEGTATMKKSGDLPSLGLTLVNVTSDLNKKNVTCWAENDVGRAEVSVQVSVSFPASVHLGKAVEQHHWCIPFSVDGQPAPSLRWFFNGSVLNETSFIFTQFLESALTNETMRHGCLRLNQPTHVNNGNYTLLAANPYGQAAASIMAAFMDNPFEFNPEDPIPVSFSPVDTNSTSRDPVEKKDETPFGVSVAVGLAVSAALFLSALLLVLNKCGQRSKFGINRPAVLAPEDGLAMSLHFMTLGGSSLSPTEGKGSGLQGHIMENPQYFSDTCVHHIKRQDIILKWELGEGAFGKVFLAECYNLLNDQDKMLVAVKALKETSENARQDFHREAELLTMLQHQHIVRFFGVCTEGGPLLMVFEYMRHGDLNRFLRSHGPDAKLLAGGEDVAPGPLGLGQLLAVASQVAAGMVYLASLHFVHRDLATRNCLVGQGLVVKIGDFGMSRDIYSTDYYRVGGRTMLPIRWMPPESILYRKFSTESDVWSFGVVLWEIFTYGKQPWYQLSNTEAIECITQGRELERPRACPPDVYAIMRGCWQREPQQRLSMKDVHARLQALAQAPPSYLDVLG

B1: Shc 1-209: Shc amino terminus, first 209 amino acids of murine p52Shc, generated as a GST fusion protein (protein, UniProt P98083 1-209, looked up, fragment)
chain: MDLLPPKPKYNPLRNESLSSLEEGASGSTPPEELPSPSASSLGPILPPLPGDDSPTTLCSFFPRMSNLKLANPAGGRLGPKGEPGKAAEDGEGSAGAALRDSGLLPLLQDMNKLSGGGGRRTRVEGGQLGGEEWTRHGSFVNKPTRGWLHPNDKVMGPGVSYLVRYMGCVEVLQSMRALDFNTRTQVTREAISLVCEAVPGAKGATRRR
modifications: GST fusion
notes: Shc amino terminus, first 209 amino acids of murine p52Shc, generated as a GST fusion protein
binding to TrkA: bound to HER2/neu and TrkA; also recorded: bind in a similar fashion to that seen with the SH2 domain of phospholipase C-λ
